Experimental data taken from paper PMC4787601.
pKd: −log10 of the molar value.

Biological target: phospholamban peptide, first 21 amino acids, wild type (UniProt P26678)
Test: SPR

Sequence of UniProt P26678 (P26678 1-21): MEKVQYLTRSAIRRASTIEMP

A pKd of 7.88 was found for “purified AKAP7γ (from UniProt Q9P0M2 1-348) (natural protein)” in this work.
